What all share (test): IEDB peptide-MHC binding, purified MHC/competitive/radioactivity; filed as Kd, often an IC50 or EC50 that approximates it; ≥ and ≤ were set here for values at or beyond the usual limits of such assays
In assay [1] the target is HLA-A*31:01.
For assay [2], the target named is HLA-A*33:01.
For assay [3], the target named is HLA-A*68:01.
Assay [4] has as its target HLA-A*11:01.
For assay [5], the target named is HLA-A*03:01.
Where [6] appears, read: source organism: Vaccinia virus WR.
Setting [7] is: source organism: Dengue virus 2 Jamaica/1409/1983.
The mark [8] stands for this setting: source organism: Dengue virus 1 Brazil/97-11/1997.
Setting [9] is: source organism: Dengue virus 4 Philippines/H241/1956.
Where [10] appears, read: source organism: SARS coronavirus Tor2.
Setting [11] is: source organism: Lymphocytic choriomeningitis virus (strain Armstrong).
The mark [12] stands for this setting: source organism: Dengue virus 3 Martinique/1243/1999.
Where [13] appears, read: source organism: Dengue virus 4 Dominica/814669/1981.

For orientation: Kd means the free concentration of one partner at which half of the binding sites on the other are occupied at equilibrium, for simple one-to-one binding. As to FLIVSLCPTK, the Kd in assay [1] (setting [6]) is not below 25.6 µM; in assay [2] (setting [6]), 15.1 µM; in assay [3] (setting [6]), 0.977 µM; in assay [4] (setting [6]), 0.0022 µM; in assay [5] (setting [6]) it was 0.219 µM.
With FLLRHYYNK, the Kd turned out to be 0.0764 µM in assay [1] (setting [6]); 2.05 µM in assay [2] (setting [6]); 1.34 µM in assay [3] (setting [6]); 0.0271 µM in assay [4] (setting [6]); 0.00731 µM in assay [5] (setting [6]).
With FMALVAFLR, the figures for the Kd in assay [1] (setting [7]), in assay [2] (setting [7]) and in assay [3] (setting [7]) were 0.0169 µM, 0.0107 µM and 0.0506 µM, respectively.
In the case of FMSHVKSVTK, the Kd turned out to be 0.279 µM in assay [1] (setting [6]); 0.0989 µM in assay [2] (setting [6]); 0.0316 µM in assay [3] (setting [6]); 0.00328 µM in assay [4] (setting [6]); 0.00773 µM in assay [5] (setting [6]).
Turning to FNMLKRARNR, the dissociation constant (Kd) in assay [2] (setting [8]) is 0.421 µM.
In the case of FTTRLLSSTR, the Kd in assay [2] (setting [9]) came to 0.0854 µM; in assay [3] (setting [9]), 0.0255 µM.
For FVSLVKKNKK, the Kd amounted to 0.284 µM in assay [1] (setting [6]); 9.29 µM in assay [2] (setting [6]); 0.0115 µM in assay [3] (setting [6]); 0.234 µM in assay [4] (setting [6]); 4.66 µM in assay [5] (setting [6]).
In the same order, the values of GIADIRDKY are not below 77.9 µM, not below 77.7 µM, 2.34 µM, 8.97 µM and not below 78 µM.
For GIFVDTMSIY, in that order: not below 70 µM, not below 28.5 µM, 3.38 µM, 0.815 µM and 3.79 µM.
For the sequence GLFCLLNRY, the Kd in assay [1] (setting [10]) amounted to 7.16 µM; in assay [2] (setting [10]), 13 µM; in assay [3] (setting [10]), 16.1 µM; in assay [4] (setting [10]) it was 1.34 µM; in assay [5] (setting [10]), 0.839 µM.
Consider GLTPEQKAY, for which the Kd in assay [1] (setting [6]) was not below 77.9 µM; in assay [2] (setting [6]), not below 77.7 µM; in assay [3] (setting [6]), 15 µM; in assay [4] (setting [6]), not below 56.3 µM; in assay [5] (setting [6]), not below 78 µM.
With GNFSWFPHK, the Kd is 1.35 µM in assay [1] (setting [11]); 6.31 µM in assay [2] (setting [11]); 1.83 µM in assay [3] (setting [11]); 0.0802 µM in assay [4] (setting [11]); 0.159 µM in assay [5] (setting [11]).
For the sequence GVCGIRSATR, the values for the Kd in assay [1] (setting [8]) and in assay [3] (setting [8]) were not below 70 µM and 1.88 µM, respectively.
For the sequence HTCMSECVR, the Kd in assay [1] (setting [6]) is 0.0254 µM; in assay [2] (setting [6]), 0.324 µM; in assay [3] (setting [6]), 0.0578 µM; in assay [4] (setting [6]) it was 0.0673 µM; in assay [5] (setting [6]), 3.2 µM.
On to HVQTKPGLFK, for which the figures for the Kd in assay [4] (setting [9]) and in assay [5] (setting [9]) were 0.389 µM and 0.00844 µM, respectively.
With IMQAGKRSLR, the figures for the Kd in assay [1] (setting [7]) and in assay [2] (setting [7]) were 0.0058 µM and 0.219 µM, respectively.
With ISSIIRSLPK, in assay [4] (source organism: Mammarenavirus whitewaterense), the Kd turned out to be 0.023 µM.
For KAINVLRGFR, in assay [1] (setting [7]), the Kd stood at 0.000824 µM.
For the sequence KMVEPWLSSK, the Kd in assay [5] (setting [9]) amounted to 0.0115 µM.
For LINRFTMRHK, the Kd in assay [5] (source organism: Dengue virus 2 Peru/IQT2913/1996) was found to be 0.0141 µM.
Regarding LLSGQGPMK, in assay [5] (setting [8]), the Kd is 0.0402 µM.
Consider LMRFITAETH, for which the Kd is 0.411 µM in assay [1] (setting [11]), 5.45 µM in assay [2] (setting [11]) and 3.54 µM in assay [3] (setting [11]).
For the sequence LTWLGLNSR, the Kd is not below 63.3 µM in assay [1] (setting [8]) and 0.0438 µM in assay [2] (setting [8]).
Turning to MGYWIESSK, the Kd in assay [5] (setting [9]) was found to be 0.0839 µM.
MLNILNRRRR: the Kd in assay [1] (setting [7]) came to 0.0141 µM.
With MLSIINKRK, the Kd in assay [5] (setting [12]) stood at 0.121 µM.
Take MVLAFITFLR: the Kd in assay [1] (setting [9]) was 0.00434 µM; in assay [2] (setting [9]), 0.0223 µM; in assay [3] (setting [9]), 0.0174 µM; in assay [4] (setting [9]) it was 0.971 µM.
For MWSLMYFHR, the figures for the Kd in assay [1] (setting [12]) and in assay [2] (setting [12]) were 0.0289 µM and 0.00136 µM, respectively.
In the same order, the values of MWSLMYFHRR are 0.0115 µM and 0.0312 µM.
Regarding NTSVDLYAR, the Kd in assay [4] (source organism: Mammarenavirus guanaritoense) came out at 2.19 µM.
On to RLRMDKLQLK, for which the Kd in assay [5] (setting [7]) was 0.00791 µM.
In the case of SMLNIMNRRK, the Kd in assay [5] (setting [8]) worked out at 0.0496 µM.
With SQLAKRFSR, the Kd in assay [1] (source organism: Dengue virus 3 Singapore/8120/1995) was 0.00207 µM.
As for STYGWNLVR, the Kd was 0.00326 µM in assay [1] (setting [7]), 0.00291 µM in assay [2] (setting [7]), 0.00881 µM in assay [3] (setting [7]) and 0.0635 µM in assay [5] (setting [7]).
Regarding SYSMCTGKFK, the Kd in assay [2] (setting [7]) worked out at 0.841 µM.
In the case of TSGSPIIDK, the Kd in assay [4] (source organism: Dengue virus 2 16681-PDK53) came to 0.0694 µM.
Take TTLSLDYAWK: the Kd in assay [3] (setting [8]) came out at 0.0139 µM; in assay [4] (setting [8]) it was 0.0798 µM.
With TTVITPMLR, the Kd in assay [2] (setting [12]) is 0.0367 µM; in assay [3] (setting [12]) it was 0.0118 µM.
For VFLRKLTSR, the Kd turned out to be 0.0668 µM in assay [1] (setting [13]) and 0.178 µM in assay [2] (setting [13]).
Take VSLLGSALLK: the Kd was 0.0453 µM in assay [4] (setting [9]) and 0.0249 µM in assay [5] (setting [9]).
As to VVVGAGGVGK, the Kd stood at 0.0124 µM in assay [4] (source organism: Homo sapiens) and 0.082 µM in assay [5] (source organism: Homo sapiens).
With YMPSMKRFR, the Kd was determined as 0.1 µM in assay [1] (setting [7]) and 0.00757 µM in assay [2] (setting [7]).
In the case of YVSAIAQTEK, the Kd in assay [3] (setting [7]) was 0.024 µM; in assay [4] (setting [7]), 0.311 µM.

The values above are taken from the Immune Epitope Database (IEDB).
